The record followed here is FireProtDB.

The conditions of the data set: Thermal, whole UniProt chain shown.
Where [1] appears, read: Glycine max, pH 7, DSC, HEPES/MOPS/ACES/Tris/triethanolamine/phosphate 17 mM/17 mM/17 mM/10 mM/13 mM/10 mM.
Setting [2] is: Bos taurus, pH 6.5, Absorbance, None, reversible: no.
The mark [3] stands for this setting: Bos taurus, pH 7.4, Absorbance, phosphate, reversible: no.

B1: Trypsin inhibitor B wild type, P01071 (protein)
chain: DFVLDNEGNPLSNGGTYYILSDITAFGGIRAAPTGNERCPLTVVQSRNELDKGIGTIISSPFRIRFIAEGNPLRLKFDSFAVIMLCVGIPTEWSVVEDLPEGPAVKIGENKDAVDGWFRIERVSDDEFNNYKLVFCTQQAEDDKCGDIGISIDHDDGTRRLVVSKNKPLVVQFQKVDKESL
What is called Tm is the temperature at which the thermal transition is half complete. In the case of B1, under setting [1], the midpoint of thermal melting (Tm) was 59 °C, the “heat capacity change of unfolding” value was determined as 2.63 kcal/mol/K and the “unfolding enthalpy (calorimetric)” value was found to be 103 kcal/mol.

B2: Beta-lactoglobulin wild type, P02754 (protein)
chain: MKCLLLALALTCGAQALIVTQTMKGLDIQKVAGTWYSLAMAASDISLLDAQSAPLRVYVEELKPTPEGDLEILLQKWENGECAQKKIIAEKTKIPAVFKIDALNENKVLVLDTDYKKYLLFCMENSAEPEQSLACQCLVRTPEVDDEALEKFDKALKALPMHIRLSFNPTQLEEQCHI
With B2, the Tm was 82 °C (Bos taurus, pH 4, DSC, Unknown); 80.1 °C under setting [2]; 65.9 °C under setting [3]. The “unfolding enthalpy (van 't Hoff)” value reads like this: under setting [2], 55.5 kcal/mol; under setting [3], 39.9 kcal/mol.

B3: Tryptophan synthase alpha chain wild type, P0A877 (protein)
chain: MERYESLFAQLKERKEGAFVPFVTLGDPGIEQSLKIIDTLIEAGADALELGIPFSDPLADGPTIQNATLRAFAAGVTPAQCFEMLALIRQKHPTIPIGLLMYANLVFNKGIDEFYAQCEKVGVDSVLVADVPVEESAPFRQAALRHNVAPIFICPPNADDDLLRQIASYGRGYTYLLSRAGVTGAENRAALPLNHLVAKLKEYNAAPPLQGFGISAPDQVKAAIDAGAAGAISGSAIVKIIEQHINEPEKMLAALKVFVQPMKAATRS
Regarding B3, the midpoint of thermal melting (Tm) (Escherichia coli (strain K12), pH 8.98, DSC, sodium tetraborate 1 mM) was 54.2 °C.
